For 4 molecules, binding result and IC50 results are on record in paper PMC3538687, “Detection of Cyclic Diguanylate G-Octaplex Assembly and Interaction with Proteins”.

Series [1] deals with Thrombin protease (UniProt P00734;P00734 328-363;364-622). Briefly: DRaCALA; 8 µM thrombin; DRaCALA on dry nitrocellulose, 10 min at room temperature; binding buffer and pH not given in the material. cdiGMP G8/M/D binding (a cyclic dinucleotide ligand).
The target of series [2] is T1, HIV-1 reverse transcriptase (HIV RT) (HIV-1 (HXB2 strain), UniProt P04585;P04585 588-1147;588-1027). Nature of the series: competition (DRaCALA); unlabeled PF1 vs 5 nM 32P-PF1; 960 nM RT. Conditions: protein: commercial; copies: 1;1.
Series [3] addresses T1, HIV-1 reverse transcriptase (HIV RT). Nature of the series: competition (DRaCALA). Conditions: protein: commercial; copies: 1;1.

For GGTTGGTGTGGTTGG (structured_DNA) [TBA25], the binding result in series [1] is recorded as “binds”.
One may read the IC50 as the concentration that gives 50% inhibition. A high value points to weaker potency in that assay. Turning to AGGAAGGCTTTAGGTCTGAGATCTCGGAAT (structured_DNA) [PF1], in series [2], the IC50 amounted to 4 µM.
With TAATACCCCCCCTTCGGTGCAAAGCACCGAAGGGGGGG (structured_DNA) [38 NT SELEX], in series [3], the binding result was “binds”.
Consider CGCCTGACCCTTCAGGCGTTGGGTGGGTGGGTGGG (structured_DNA) [S4], for which the binding result in series [3] is reported as “binds”.
